According to US11653679B2, “High-purity steviol glycosides” (PureCircle Sdn Bhd, priority 2014, dated 2023):

Test: Directed evolution of UGT76G1, Rebaudioside D to Rebaudioside M, round 1 (Example 26)
Format: biochemical
Details: 100 μL fresh lysate, 0.5 mM Rebaudioside D, 30° C., pH 7.2
Procedure, shortened: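 Cleared cell lysate (Bugbuster) incubated with 0.5 mM Rebaudioside D, 3 mM MgCl2 and 2.5 mM UDP-glucose in 50 mM phosphate pH 7.2 at 30 °C. Samples at 2, 4, 7 and 24 h analysed by HPLC-CAD for conversion and initial rate.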

| Molecule | initial rate |
| --- | --- |
| UGT76G1var42: UGT76G1 variant, mutations T263S_Q266S_R334H (protein, UniProt Q6VAB4 1-458, looked up, variant T263S Q266S R334H) UDP-glycosyltransferase 76G1: MENKTETTVRRRRRIILFPVPFQGHINPILQLANVLYSKGFSITIFHTNFNKPKTSNYPHFTFRFILDNDPQDERISNLPTHGPLAGMRIPIINEHGADELRRELELLMLASEEDEEVSCLITDALWYFAQSVADSLNLRRLVLMTSSLFNFHAHVSLPQFDELGYLDPDDKTRLEEQASGFPMLKVKDIKSAYSNWQILKEILGKMIKQTKASSGVIWNSFKELEESELETVIREIPAPSFLIPLPKHLTASSSSLLDHDRSVFSWLDQQPPSSVLYVSFGSTSEVDEKDFLEIARGLVDSKQSFLWVVRPGFVKGSTWVEPLPDGFLGERGHIVKWVPQQEVLAHGAIGAFWTHSGWNSTLESVCEGVPMIFSDFGLDQPLNARYMSDVLKVGVYLENGWERGEIANAIRRVMVDEEGEYIRQNARVLKQKADVSLMKGGSSYESLESLVSYISSL | 2.2E+07 Reb M area/min |
| UGT76G1var43: UGT76G1 variant, mutations S241I_P272A_V279I (protein, UniProt Q6VAB4 1-458, looked up, variant S241I P272A V279I) UDP-glycosyltransferase 76G1: MENKTETTVRRRRRIILFPVPFQGHINPILQLANVLYSKGFSITIFHTNFNKPKTSNYPHFTFRFILDNDPQDERISNLPTHGPLAGMRIPIINEHGADELRRELELLMLASEEDEEVSCLITDALWYFAQSVADSLNLRRLVLMTSSLFNFHAHVSLPQFDELGYLDPDDKTRLEEQASGFPMLKVKDIKSAYSNWQILKEILGKMIKQTKASSGVIWNSFKELEESELETVIREIPAPIFLIPLPKHLTASSSSLLDHDRTVFQWLDQQAPSSVLYISFGSTSEVDEKDFLEIARGLVDSKQSFLWVVRPGFVKGSTWVEPLPDGFLGERGRIVKWVPQQEVLAHGAIGAFWTHSGWNSTLESVCEGVPMIFSDFGLDQPLNARYMSDVLKVGVYLENGWERGEIANAIRRVMVDEEGEYIRQNARVLKQKADVSLMKGGSSYESLESLVSYISSL | 9.4E+06 Reb M area/min |
| UGT76G1var44: UGT76G1 variant, mutations I335V_S375R_I407V (protein, UniProt Q6VAB4 1-458, looked up, variant I335V S375R I407V) UDP-glycosyltransferase 76G1: MENKTETTVRRRRRIILFPVPFQGHINPILQLANVLYSKGFSITIFHTNFNKPKTSNYPHFTFRFILDNDPQDERISNLPTHGPLAGMRIPIINEHGADELRRELELLMLASEEDEEVSCLITDALWYFAQSVADSLNLRRLVLMTSSLFNFHAHVSLPQFDELGYLDPDDKTRLEEQASGFPMLKVKDIKSAYSNWQILKEILGKMIKQTKASSGVIWNSFKELEESELETVIREIPAPSFLIPLPKHLTASSSSLLDHDRTVFQWLDQQPPSSVLYVSFGSTSEVDEKDFLEIARGLVDSKQSFLWVVRPGFVKGSTWVEPLPDGFLGERGRVVKWVPQQEVLAHGAIGAFWTHSGWNSTLESVCEGVPMIFRDFGLDQPLNARYMSDVLKVGVYLENGWERGEVANAIRRVMVDEEGEYIRQNARVLKQKADVSLMKGGSSYESLESLVSYISSL | 2.3E+07 Reb M area/min |
| UGT76G1var45: UGT76G1 variant, mutations V279I_D301N_S389E (protein, UniProt Q6VAB4 1-458, looked up, variant V279I D301N S389E) UDP-glycosyltransferase 76G1: MENKTETTVRRRRRIILFPVPFQGHINPILQLANVLYSKGFSITIFHTNFNKPKTSNYPHFTFRFILDNDPQDERISNLPTHGPLAGMRIPIINEHGADELRRELELLMLASEEDEEVSCLITDALWYFAQSVADSLNLRRLVLMTSSLFNFHAHVSLPQFDELGYLDPDDKTRLEEQASGFPMLKVKDIKSAYSNWQILKEILGKMIKQTKASSGVIWNSFKELEESELETVIREIPAPSFLIPLPKHLTASSSSLLDHDRTVFQWLDQQPPSSVLYISFGSTSEVDEKDFLEIARGLVNSKQSFLWVVRPGFVKGSTWVEPLPDGFLGERGRIVKWVPQQEVLAHGAIGAFWTHSGWNSTLESVCEGVPMIFSDFGLDQPLNARYMEDVLKVGVYLENGWERGEIANAIRRVMVDEEGEYIRQNARVLKQKADVSLMKGGSSYESLESLVSYISSL | 2.3E+07 Reb M area/min |
